Data reported in a protein production outcome set (Wang et al. 2014).

Assay: label from the status in PepcDB records
For “MLRFMVRSFASLAISSAYSIPIGLSSVTSILDEDTIIERVCYGYLKCNATCSTEIVIVNYSITLNMSDDVVVKLLNDGYFSLDAGAYFGVVPKAIWSRKFQEIDNTVRLATNVLYITESDGTSILVDSGIGNKFDDKFRKIYRVEKQSDIYEYIRLHGDPNSVRMIINSHLHFDHVGHNADFKNAYAYAQADEFKAARYRNYITKANYRLSASQIKNKVEIGGSKRINGFIRVIKTDGHTPGHQVILINAGGRKIMYFGDIVPSTFHLKLPYRTAIDLDPLKTIEFKKNLVKMAIRENYICIFNHDVETPAAILSGDYSDPKYVKVDI”, the protein production was “failed”.
For “MLRIIVIGTTGSGKTTFARALAQRLGLPHGEQDAWNHEANWQMAPLGRFRARVDTFTSQPAWVMDGNYGKARDLGWARADTLIWLDFPAWLVYSRLVRRTLWRVLTQQELWNGNRETWRGALLDPEGPLRWFWKTHWRRRQETPALAAEFPHLRLVRLRSPGEARRFLAAVGRGHPTALEHHHHHH”, the protein production was “failed”.
For “MLRLDTRFLPGFPEALSRHGPLLEEARRRLLAKRGEPGSMLGWMDLPEDTETLREVRRYREANPWVEDFVLIGIGGSALGPKALEAAFNESGVRFHYLDHVEPEPILRLLRTLDPRKTLVNAVSKSGSTAETLAGLAVFLKWLKAHLGEDWRRHLVVTTDPKEGPLRAFAEREGLKAFAIPKEVGGRFSALSPVGLLPLAFAGADLDALLMGARKANETALAPLEESLPLKTALLLHLHRHLPVHVFMVYSERLSHLPSWFVQLHDESLGKVDRQGQRVGTTAVPALGPKDQHAQVQLFREGPLDKLLALVIPEAPLEDVEIPEVEGLEAASYLFGKTLFQLLKAEAEATYEALAEAGQRVYALFLPEVSPYAVGWLMQHLMWQTAFLGELWEVNAFDQPGVELGKVLTRKRLAG”, the protein production was “not failed”.
With “MLRPAGLWRLCRRPWAARVPAENLGRREVTSGVSPRGSTSPRTLNIFDRDLKRKQKNWAARQPEPTKFDYLKEEVGSRIADRVYDIPRNFPLALDLGCGRGYIAQYLNKETIGKFFQAAIAENALKNSSETEIPTVSVLADEEFLPFKENTFDLVVSSLSLHWVNDLPRALEQIHYILKPDGVFIGAMFGGDTLYELRCSLQLAETEREGGFSPHISPFTAVNDLGHLLGRAGFNTLTVDTDEIQVNYPGMFELMEDLQGMGESNCAWNRKALLHRDTMLAAAAVYREMYRNEDGSVPATYQIYYMIGWKYHESQARPAERGSATVSFGELGKINNLMPPGKKSQ” the protein production was “failed”.
For “MLRQGAKHTACTGRRNDDDRTPKEQSMKIVVIGGTGLIGSNVVNRLRRDGHETVAASPGTGVNTITGEGLAQALDGAQVVVDVANSPSFEDQAVMAFFETSGRTLLAAEAAAGVTHHLALSVVGTDRLADSGYFRAKVAQEALIKASKVPYTILRATQFFEFIESIVNAGADGDTVRLSPALIQPIAADDVSAALADLAVGMPLNGTVEVAGPDRLPLDELARKFLAARGDRRQVVADVHARYFGSELDDRSLVAGDNPRVGSTRLMNWLSRSPAPQ”, the protein production was “failed”.
In the case of “MLRQSMNDYFEQPWYLTYADAERLSDLRDETLTLRDEEVTGHVPTEVEYEELQQVNDELAQRIGDMLKVHKEQGAAIDLALVLRDYLASHPRTHHFDLARMVVDQAVRLGYSESDYRAIQPDWTAINDFGAKVQANVIDRYLEHHHHHH”, the protein production is reported as “not failed”.
In the case of “MLRSVYEMTKISKIIDELNNQQADAAWITTPLNVYYFTGYRSEPHERLFALLIKKDGKQVLFCPKMEVEEVKASPFTGEIVGYLDTENPFSLYPQTINKLLIESEHLTVARQKQLISGFNVNSFGDVDLTIKQLR”, the protein production is reported as “not failed”.
In the case of “MLSAVRRANLYLNLFGFSKVPLIWLCHPKIIAIDSKHVEVRIPLRRRTKNHLNSMYFGALAVGADVAGGFLAMSKAQEKGEAISLAFKGVKAEFLKRPEADVHFVCNDGHVIDEMLDHTIATGERVNRDVKIIALCPSLHGQEPMAEFALTLSIKKAAQHTKLEHHHHHH”, the protein production is reported as “not failed”.
With “MLSERRLKVLRAIVQDYVGTEEPVGSKALTERHNLGVSPATVRNDMAALEDEGFIAQPHTSAGRIPTDKGYRLFVDKLAGVKPMTAPERRAIQNFLEGAVDLDDVVARTVRLLAQLTRQVAVVQYPSLTRSTVRHVELLSLAPARLMLVLITDTGRVEQRMVDCPAPFGEASLADLRARLNSRVAGRRFADVPALVEDLAEPFEAEDRGTVSTVLSTLLETLVEENEERLMIGGTANLTRFGHDFPLVIRPVLEALEEQVVLLKLLGEAKDPGVTVRIGHENAHEGLNSTSVVSVGYGSGGEAVAKLGVVGPTRMDYPGTMGAVRAVARYVGQILAES” the protein production was “failed”.
For “MLSIEVTVFAAIAYLTILFSIAYRGDRGASNRVRPYRYSLAQGVHCTSWAFFGTITQSAYYGWAFAPTYVGAIIVFILLHSLQLKLLNYCKHQNITSIADLIGTRYGKSPVLAGVVAITAFIAVVPYISLQLRAVTSSFATVTGFDTNPSWIFDLSFLVALTMIGFGFLFGTRRLSLAEQHSGLMDAIAFESLVKLAAFIIVGLFASYTVFDGLADLFQKSFETQHTQDVLAGREYGGYVFAVHMLLGGLSMFSLPRQFHVGYVENTHSDELKTARWAFPLYLFAINFFILPLSLSALHLAPELANQDTFMLVIPLMMDRPDITLIAFIGGLSAATSMVIIALLALSIMVSNDVVMPIWLRMTRQKLRQFSFTPTRILSIRRMTMVVVMFMAYLYYQATIESMPLVNSGLLSLALLTQLTPAILATVLWRSATQTGVLVGLVVGTALWVILLLVPSIGLQPQVTDIDIANGVLISLGANLICFWLFSLISKNVQTDLQSIQSSDDYEQQPSLTWARLRSLLSRFYDDRQLAAIQRRLRMDLLTPEGQSMVPAPMLVRIERELSAVIGTSASRLLLDTVSEQQEFPVSRVVDWATEASKLYQFNRELLQASVENIPQGISVVDQKLRLVAWNRRYLEIFDYPDGLVRAGMPVEELLRYNARRGLLSNSQNTDVEAEIQKRLNFLRTGSTYHYQRQQGELTVELQGSPMPGGGFVTTYSDITERVEAQRQLQKINQELEERVDERTQQLLSAKEAEEKAHESKSRFFAAVSHDLMQPFNAASLFCEMLQSRLPNEYLPLAVNIQRSLDHAEELLTMLLDMTKLDAGNLKPDYQEFSIDQALLPLVERYQAMAKEKQLRFHYHKSSALVKTDRKLLNRIIQNLLSNALRYTQHGRIVLGFRRHQQHLTICIIDTGSGIPEHKQTEIFREFHQLQSSGDNPGLGLGLSIVERMCRLLRIDLSLSSTLDKGTAFSLTLPVIGWQKEPQPVVIKNDSVDEKLLKDMRVLVIDNDPGVLKATAGLLTDWGAETMTASSFDQARKHPPCDLILADYHLDNGNTGIELVVSIRKLWNSNTPAIINSADPDELLREQALEANAYFIPKPLKSGALKRLLKRIRRI”, the protein production was “failed”.
With “MLSIGSGKLLIGCVAGLLVLGGATLGLGIGGFADVPADSETTVGEDELEIRAVQTPTEIRPDEPLRVQLRLTNAGSETTTKQVALQLSGDGDQQSLETVATKQVEVSAAEPTNVTLTVEPEQLSSGEYTYAVAVGESSSPETTGSVAVLTPPTFVLDDTTENATIVRGTNVSIRANLTNAGAYRGVQTVRIAVDEDQNGQYTDAERLDESVYSLAGGQSQVSTATAHTTDMEPGRYQYKIATENTTATGTLSVQQPATFRVQNTTAPVNVTKGETANVSVVVKNVGDVDGTDNVTIRSDSLNTTYSRSVSLAANETTTVSIGVNTTNLSSGTHNHSLGTSTDTDPVSMTVQDSHFEVSDLDGPNVLYVGDMAVFSADVTNTGNITGTQSIQHRIDSDDDDRPEAYGVDRNVTLAPGESTRVRFEIDYTVTDSTEYPVEPLRLQTYVHGIYSEDARASTAMSVKPSWAKDGGSSSYSGSTSVSEGDRASLDEITQDKYGRHYDEVSGETKRQVEEIHERQPFADGLAAAEVRTREEIARQEYDADVKAGEKFNFTGLDIETQQKVESDFDAQFETDSGDRIESWDELANDTYETSYENLTTSRQADIRTTYQDQFE” the protein production was “failed”.
With “MLSINPNEQTEKDNYKLLTGSIIPRPVAFVTSVTKEGVLNGAPYSYFNIVAANPPLISVSVQRKAGERKDTSRNAIEKGEFVVHISDESYVAAINETAANLPPNESEIELAKLTPIESEVISVPGVKEANIRMECVLERAIPLGGTEDSPACDLLIGRVVRFHVAEHLYEKGRIHAEGLKPISRLAGHNYAKLGEQFELVRPI” the protein production was “not failed”.
In the case of “MLSKILYADSGTSQTQEMLKAMMDFPAVQKASITILHVVPPQITTEAFTEKWAEGGKILADLLEDVAIEPSKVSTVLRQGDPKGVVCDVANEIDADLIIMGSRGLKRLEAILENSVSQYVFQLTNHPMLLVKDDIYVKRIKRVMVALDKSAAAEYALELALELLRDYPEGELILARVNPDLKPDLLPLSRQEIEENPVLAPAIAKAKRLGIAYRCTVTGGKPGEKLCELAEDYNADLMLLGSPDRRPSIAKSLPDLDRLLGTSLSDYIRVNAPCPVLLTRKEGI”, the protein production is reported as “failed”.
